{
  "source": "paper PMC2879644",
  "molecular_target": "Biotinylated histone H3 peptide (aa 21-44) tri-methylated on K27 (UniProt P68431)",
  "experiment": "pull-down",
  "data": [
    {"substance": "GST-SUMO1-fused Pc2(1-100) (from UniProt O00257 1-100)", "values": [
      {"measurement": "fold change of the amount bound against Pc2 (1-100)", "result": "> 4", "unit": "fold"}
    ]}
  ]
}
